From US20260078195A1 (BEIJING MABWORKS BIOTECH, published 2026)

T1: human BCMA expressed on HEK293A cells (human, UniProt Q02223 1-184)
T1 construct: also called HEK293A/human BCMA cells
T1 sequence: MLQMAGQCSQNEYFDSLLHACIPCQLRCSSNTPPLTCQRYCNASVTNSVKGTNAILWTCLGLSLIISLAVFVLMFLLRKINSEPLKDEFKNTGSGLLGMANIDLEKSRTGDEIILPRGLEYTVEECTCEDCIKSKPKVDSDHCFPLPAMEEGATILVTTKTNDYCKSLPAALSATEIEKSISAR

T2: mouse BCMA expressed on HEK293A cells (mouse, UniProt O88472 1-185)
T2 construct: also called HEK293A/mouse BCMA cells
T2 sequence: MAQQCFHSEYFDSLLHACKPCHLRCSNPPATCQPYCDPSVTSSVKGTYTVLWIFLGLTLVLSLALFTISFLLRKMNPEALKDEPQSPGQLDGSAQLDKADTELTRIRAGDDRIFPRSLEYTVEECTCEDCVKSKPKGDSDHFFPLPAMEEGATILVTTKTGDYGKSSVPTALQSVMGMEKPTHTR

T3: human BCMA antigen (Cat #:BCA-H522y, ACRO) (human, UniProt Q02223 1-54)
T3 construct: Bought recombinant protein used as SPR analyte
T3 sequence: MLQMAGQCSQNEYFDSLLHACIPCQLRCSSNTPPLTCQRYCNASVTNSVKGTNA

T4: monkey GPRC5D expressed on HEK293T cells (monkey, UniProt Q9NZD1 1-298 (human entry))
T4 construct: also called HEK293T/monkey GPRC5D cells
T4 chain: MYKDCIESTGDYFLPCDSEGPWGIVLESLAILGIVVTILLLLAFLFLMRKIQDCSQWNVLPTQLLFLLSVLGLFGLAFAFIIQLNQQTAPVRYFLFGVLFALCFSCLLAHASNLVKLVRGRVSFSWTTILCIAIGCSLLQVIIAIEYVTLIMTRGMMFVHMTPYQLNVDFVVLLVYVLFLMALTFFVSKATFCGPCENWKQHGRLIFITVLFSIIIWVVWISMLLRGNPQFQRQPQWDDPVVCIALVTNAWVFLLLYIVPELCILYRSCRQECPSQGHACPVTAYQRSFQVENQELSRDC


Tests used:
[1] = molecular target: T5, human GPRC5D expressed on HEK293T cells (human, UniProt Q9NZD1 1-345); test: FACS on HEK293T/human GPRC5D cells, PE goat anti-human IgG (H+L) secondary antibody, MFI
T5 construct: also called HEK293T/human GPRC5D cells
T5 sequence (Q9NZD1 whole entry): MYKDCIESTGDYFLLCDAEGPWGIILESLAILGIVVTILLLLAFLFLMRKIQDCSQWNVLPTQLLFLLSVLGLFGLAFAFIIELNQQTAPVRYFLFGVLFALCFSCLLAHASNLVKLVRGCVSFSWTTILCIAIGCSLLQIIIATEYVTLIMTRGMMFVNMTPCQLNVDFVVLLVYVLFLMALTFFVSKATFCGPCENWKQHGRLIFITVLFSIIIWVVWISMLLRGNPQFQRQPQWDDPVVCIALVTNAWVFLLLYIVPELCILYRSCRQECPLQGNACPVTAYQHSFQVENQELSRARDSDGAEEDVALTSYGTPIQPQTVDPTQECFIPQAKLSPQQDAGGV
Procedure: (§1) The cells were re-suspended in PBS, counted, and centrifuged again to remove the supernatants. The cells were re-suspended in 2% FBS-PBS, to adjust the cell concentration to 4×10⁶/ml. Each kind of cells were added to 96-well U-bottom plates, 50 μl/well. The antibodies were diluted in 2% FBS-PBS, 5-fold serial dilution starting at 40 μg/ml, obtaining 12 concentrations in total. The 96-well plates were added with 50 μl antibody dilution, mixed well, and incubated at room temperature for 1 h. The plates were washed by 2% FBS-PBS, 200 μl/well, for three times. The plates were added with PE labelled goat-anti-human IgG (H+L) secondary antibody (1:500 diluted), 50 μl/well, and incubated at room temperature for 45 min. The plates were washed by 2% FBS-PBS, 200 μl/well, for three times. Finally the plates were added with 150 μl 2% FBS-PBS to re-suspend the cells, and the cells were tested in a flow cytometer. The data was processed in FlowJo and analyzed in GraphPad.

[2] = molecular target: T1, human BCMA expressed on HEK293A cells; test: FACS on HEK293A/human BCMA cells, PE goat anti-human IgG (H+L) secondary antibody, MFI
Procedure: as §1

[3] = molecular target: T2, mouse BCMA expressed on HEK293A cells; test: FACS on HEK293A/mouse BCMA cells, PE goat anti-human IgG (H+L) secondary antibody, MFI
Procedure: as §1

[4] = molecular target: T6, human CD3 complex on Jurkat cells (human, UniProt P07766 23-207; P04234 22-171; P09693 23-182; P20963 22-164); test: FACS on Jurkat cells, PE goat anti-human IgG (H+L) secondary antibody, MFI
T6 construct: whole, on cells; Endogenous CD3 complex of Jurkat / JURKAT-NFAT-Luc cells; also called human Jurkat T cells; CD3 on the surface of JURKAT-NFAT-Luc cells
T6 sequence (P07766 23-207, chain 1 of 4): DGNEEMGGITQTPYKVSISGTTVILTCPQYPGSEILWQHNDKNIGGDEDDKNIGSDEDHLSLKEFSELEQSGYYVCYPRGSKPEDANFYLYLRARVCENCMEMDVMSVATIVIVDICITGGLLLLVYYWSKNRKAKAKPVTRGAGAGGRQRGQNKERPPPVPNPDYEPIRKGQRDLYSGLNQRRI
T6 sequence (P04234 22-171, chain 2 of 4): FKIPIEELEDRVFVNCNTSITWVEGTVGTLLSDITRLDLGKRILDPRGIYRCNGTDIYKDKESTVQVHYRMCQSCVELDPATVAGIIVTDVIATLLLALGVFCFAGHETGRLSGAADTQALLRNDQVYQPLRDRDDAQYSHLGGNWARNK
T6 sequence (P09693 23-182, chain 3 of 4): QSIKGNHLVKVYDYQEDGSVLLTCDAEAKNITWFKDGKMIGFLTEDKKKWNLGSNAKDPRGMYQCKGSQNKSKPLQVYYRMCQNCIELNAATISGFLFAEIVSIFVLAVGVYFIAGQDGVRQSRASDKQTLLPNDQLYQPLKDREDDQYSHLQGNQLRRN
T6 sequence (P20963 22-164, chain 4 of 4): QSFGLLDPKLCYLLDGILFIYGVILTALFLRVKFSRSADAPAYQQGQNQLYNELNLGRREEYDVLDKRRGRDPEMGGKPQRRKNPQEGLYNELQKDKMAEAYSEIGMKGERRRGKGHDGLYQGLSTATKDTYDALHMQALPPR
Procedure: as §1

[5] = molecular target: T7, monkey BCMA expressed on HEK293A cells (monkey, UniProt Q02223 1-184 (human entry)); test: FACS on HEK293A/monkey BCMA cells, PE goat anti-human IgG (H+L) secondary antibody, MFI
T7 construct: also called HEK293A/monkey BCMA cells
T7 sequence (Q02223 other isoform, or with tags, fused parts or gaps): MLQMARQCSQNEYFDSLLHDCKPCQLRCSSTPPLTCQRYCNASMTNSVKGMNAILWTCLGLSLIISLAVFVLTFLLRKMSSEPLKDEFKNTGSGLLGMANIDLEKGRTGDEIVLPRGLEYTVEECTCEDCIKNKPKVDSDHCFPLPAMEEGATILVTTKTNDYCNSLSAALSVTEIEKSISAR
Procedure: as §1

[6] = molecular target: T8, human CD3D&E protein (Cat #: CT038-H2508H, Sino biological) (human, UniProt P04234 22-105; P07766 23-126); test: SPR (BIAcore 8K), antibody captured by anti-human Fc on CM5 chip, antigen as analyte
T8 construct: Bought recombinant delta/epsilon complex used as SPR analyte; also called CD3D&E complex
T8 sequence (P04234 22-105, chain 1 of 2): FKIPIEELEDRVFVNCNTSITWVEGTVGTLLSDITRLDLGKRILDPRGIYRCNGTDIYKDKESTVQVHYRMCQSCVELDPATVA
T8 sequence (P07766 23-126, chain 2 of 2): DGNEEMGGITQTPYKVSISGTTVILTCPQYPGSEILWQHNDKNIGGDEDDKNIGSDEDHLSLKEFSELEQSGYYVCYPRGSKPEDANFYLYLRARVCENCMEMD
Procedure: (§2) The mouse anti-human Fe antibody (Cat #:BR100839, cytiva) was coupled to the surface of a CM5 chip. The antibody to be tested was diluted to 1 μg/ml with the HBS-EP buffer (Cat #:BR-1006-69, GE Life Sciences), to ensure about 100 RU of the antibody was captured by the anti-human Fe antibody. The human BCMA antigen (Cat #:BCA-H522y, ACRO), human CD3D&E protein (Cat #: CT038-H2508H, Sino biological), and human GPRC5D antigen (Cat #:HM05P, Kactus Biosystems) were diluted with HBS-EP buffer to […], respectively. Each protein at different concentrations was flowed through the surface of the stationary phase. Chips were regenerated by 3 M MgCl₂ solution. The kinetics assay was run with the Kinetics Wizard in BIAcore 8K's control software. […] The data was fitted in BIAcore 8K's evaluation software, and KD values of the test antibodies to the above antigens were determined and summarized in Table 1.

[7] = molecular target: T3, human BCMA antigen (Cat #:BCA-H522y, …); test: as above
Procedure: as §2

[8] = molecular target: T9, human GPRC5D antigen (Cat #:HM05P, Kactus Biosystems) (human, UniProt Q9NZD1 1-345, limits assumed); test: as above
T9 construct: Bought antigen used as SPR analyte
T9 sequence (Q9NZD1 whole entry): as the sequence (Q9NZD1 whole entry) above
Procedure: as §2

[9] = molecular target: T4, monkey GPRC5D expressed on HEK293T cells; test: FACS on HEK293T/monkey GPRC5D cells, PE goat anti-human IgG (H+L) secondary antibody, MFI
Procedure: as §1

| Binder | EC50 (read off the curve) [1] [µg/mL] | EC50 (read off the curve) [2] [µg/mL] | binding result [3] | binding result [4] | EC50 (read off the curve) [5] [µg/mL] | Kd [6] [nM] | koff [6] [s⁻¹] | kon [6] [M⁻¹ s⁻¹] | Kd [7] [nM] | koff [7] [s⁻¹] | kon [7] [M⁻¹ s⁻¹] | Kd [8] [nM] | koff [8] [s⁻¹] | kon [8] [M⁻¹ s⁻¹] | EC50 (read off the curve) [9] [µg/mL] | EC50 (read off the curve) [4] [µg/mL] |
| --- | --- | --- | --- | --- | --- | --- | --- | --- | --- | --- | --- | --- | --- | --- | --- | --- |
| MBS314 (tri-specific GPRC5D×BCMA×CD3 antibody) (other, also called antibody MBS314; tri-specific CD3×BCMA×GPRC5D antibody) heavy 1: QVQLVQSGAEVKKPGASVKVSCKASGYTFTNHIIHWVRQAPGQGLEWMGYINPYPGYHGYNDKFSGRATMTSDTSTSTVYMELSSLRSEDTAVYYCARDGYYRDQDVLDYWGQGTLVTVSSGGGGSGGGGSGGGGSGGGGSDIQMTQSPSSLSASVGDRVTITCKASQDISQYLNWYQQKPGKAPKLLIYYTSGLHPGVPSRFSGSGSGTDFTFTISSLEPEDEATYYCQQGYALPWTFGQGTKLTAKGGGGSGGGGSGGGGSEVQLVESGGGLVQPGRSLRLSCAASGFTFDDFAMHWVRQAPGKGLEWVSGITWNSGSVGYADSVKGRFTISRDNAKKSLYLQMNSLRAEDTALYYCAKDRSGYGHYYYGMDVWGQGTTVTVASASTKGPSVFPLAPSSKSTSGGTAALGCLVKDYFPEPVTVSWNSGALTSGVHTFPAVLQSSGLYSLSSVVTVPSSSLGTQTYICNVNHKPSNTKVDKKVEPKSCDKTHTCPPCPAPEAAGGPSVFLFPPKPKDTLMISRTPEVTCVVVDVSHEDPEVKFNWYVDGVEVHNAKTKPREEQYASTYRVVSVLTVLHQDWLNGKEYKCKVSNKALPAPIEKTISKAKGQPREPQVYTLPPSREEMTKNQVSLWCLVKGFYPSDIAVEWESNGQPENNYKTTPPVLDSDGSFFLYSKLTVDKSRWQQGNVFSCSVMHEALHNHYTQKSLSLSPGK light 1: not shown heavy 2: QVQLQESGPGLVKPSETLSLTCTVSGYSITSDYAWNWIRQPPGKGLEWMGYISYSGSATYSPSLKSRITISRDTSKNQFSLKLSSVTAADTAVYYCARGGIAGRGRWGAMDYWGQGTTVTVSSASTKGPSVFPLAPSSKSTSGGTAALGCLVKDYFPEPVTVSWNSGALTSGVHTFPAVLQSSGLYSLSSVVTVPSSSLGTQTYICNVNHKPSNTKVDKKVEPKSCDKTHTCPPCPAPEAAGGPSVFLFPPKPKDTLMISRTPEVTCVVVDVSHEDPEVKFNWYVDGVEVHNAKTKPREEQYASTYRVVSVLTVLHQDWLNGKEYKCKVSNKALPAPIEKTISKAKGQPREPQVYTLPPSREEMTKNQVSLSCAVKGFYPSDIAVEWESNGQPENNYKTTPPVLDSDGSFFLVSKLTVDKSRWQQGNVFSCSVMHEALHNHYTQKSLSLSPGK light 2: DIQMTQSPSSLSASVGDRVTITCKASQNVGTNVAWYQQKPGQSPKALIYSASYRDSGVPDRFSGSGSGTDFTLTISSLQPEDFATYYCQQYKSYPLTFGQGTRLEIKRTVAAPSVFIFPPSDEQLKSGTASVVCLLNNFYPREAKVQWKVDNALQSGNSQESVTEQDSKDSTYSLSSTLTLSKADYEKHKVYACEVTHQGLSSPVTKSFNRGEC | ~0.4 | ~1 | no binding | binds | ~0.8 | 249 | 0.00774 | 31100 | 0.441 | 0.000283 | 642000 | 3.53 | 0.00174 | 493000 | ~0.4 |  |
| JNJ-64407564 (bi-specific GPRC5D×CD3 antibody) (bispecific antibody) chain 1: QVQLVQSGAEVKKPGASVKVSCKASGYSFTGYTMNWVRQAPGQGLEWMGLINPYNSDTNYAQKLQGRVTMTTDTSTSTAYMELRSLRSDDTAVYYCARVALRVALDYWGQGTLVTVSS chain 2: DIQMTQSPSSLSASVGDRVTITCKASQNVATHVGWYQQKPGKAPKRLIYSASYRYSGVPSRFSGSGSGTEFTLTISNLQPEDFATYYCQQYNRYPYTFGQGTKLEIK chain 3: EVQLVESGGGLVQPGGSLRLSCAASGFTFNTYAMNWVRQAPGKGLEWVARIRSKYNNYATYYAASVKGRFTISRDDSKNSLYLQMNSLKTEDTAVYYCARHGNFGNSYVSWFAYWGQGTLVTVSS chain 4: QTVVTQEPSLTVSPGGTVTLTCRSSTGAVTTSNYANWVQQKPGQAPRGLIGGTNKRAPGTPARFSGSLLGGKAALTLSGVQPEDEAEYYCALWYSNLWVFGGGTKLTVL |  |  |  |  |  |  |  |  |  |  |  |  |  |  |  | ~0.06 |
